In one data set the test system is pediatric patients. Particulars: human, in vivo; cited from earlier work.
In data set [1] the test system is CF patient sputum on wild type rat trachea. Kind of data set: CF sputum transport ex vivo on excised rat trachea (μOCT). Also noted: species or system human sputum. The conditions noted are these: sputum treated 2 hrs; ORP100S 3 mM, DTT 1.6 mM, DNase 10 or 25 μg/ml; PBS 0.97±0.17. The method, then: To determine the effect of ORP100S on CF sputum transportability, sputum specimens spontaneously expectorated from 4 CF patients hospitalized for pulmonary exacerbation were collected and stored at 4° C. before being divided into 200 μL aliquots and treated with ORP100S (3 mM), PBS, DTT (1.6 mM), or DNase (10 or 25 μg/ml) on the day of or day following collection. Upon treatment, sputum aliquots were placed in a 37° C. water bath for 2 hrs and then applied (3 μl per sample) for μOCT imaging to the distal end of trachea excised from adult non-CF rats. Trachea were washed 2× with 500 μl of PBS before sputum addition. Sample conditions were applied in triplicate in random order at distinct anatomic locations—2 washes using 500 μl of PBS were performed between each sample addition—and at least 3 images were collected from each region of interest. Confirmation of trachea viability was obtained by imaging with PBS upon completion of the experiment.
One-micron resolution spectral domain μOCT was used to obtain measurements of mucociliary transport (MCT) rate and ciliary beat frequency (CBF) in HBE monolayers and of MCT rate of sputum ex vivo. This first-in-kind, high-speed (40 frames per second, 512 lines per frame) microscopic reflectance imaging modality enables simultaneous anatomic imaging in cell cultures and intact tissues that readily distinguishes the properties of CF compared to normal epithelia (Liu L, Chu K K, Houser G H, Diephuis B J, Li Y, Wilsterman E J, Shastry S, Dierksen G, Birket S E, Mazur M, et al., 2013, Method for quantitative study of airway functional microanatomy using micro-optical coherence tomography, PLoS One 8(1):e54473; Tuggle K L, Birket S E, Cui X, Hong J, Warren J, Reid L, Chambers A, Ji D, Gamber K, Chu K K, et al., 2014, Characterization of defects in ion transport and tissue development in Cystic Fibrosis Transmembrane Conductance Regulator (CFTR)-knockout rats. PLoS One 9(3):e91253). In addition to MCT rate and CBF, μOCT also has the capability to assess physical characteristics of the airway surface liquid. Images were captured, and MCT rate and CBF calculated, as described in the preceding references.
The effect of ORP100S on mucus clearance using intact rat trachea, which include the complexities of the airway surface such as gland expression of a fully differentiated mucosal surface, was further evaluated. […] MCT was measured by projecting a cross-sectional line through the mucus through time, with the slope of the particle trajectories indicating velocity. […]

The values that follow come from patent US20230071765A1, “COMPOSITIONS HAVING THIOREDOXIN ACTIVITY AND RELATED METHODS” (ORPRO THERAPEUTICS, INC., priority 2020, published 2023).

B1: DNase: recombinant human DNase I (protein, UniProt P24855 23-282, looked up)
Deoxyribonuclease-1: LKIAAFNIQTFGETKMSNATLVSYIVQILSRYDIALVQEVRDSHLTAVGKLLDNLNQDAPDTYHYVVSEPLGRNSYKERYLFVYRPDQVSAVDSYYYDDGCEPCGNDTFNREPAIVRFFSRFTEVREFAIVPLHAAPGDAVAEIDALYDVYLDVQEKWGLEDVMLMGDFNAGCSYVRPSQWSSIRLWTSPTFQWLIPDSADTTATPTHCAYDRIVVAGMLLRGAVVPDSALPFNFQAAYGLSDQLAQAISDHYPVEVMLK
With B1, in the data set on pediatric patients, the “pediatric patients with clinical deterioration in lung function” value is 6-30%. For the same molecule, the “MCT rate of treated sputum” value in data set [1] is on record as 2.30±0.28 mm/min.
